In publication PMC6254359:

B1: Trim5α from Rhesus macaque, Bbox coiled-coil regions, residues 88–296 with the mutation [Rhesus macaque] / LC3C [not stated] (parent)
chain 1: PEEGQKVDHCARHGEKLLLFCQEDSKVICWLCKDSQEHRGHHTFLMEEVAQEYHVKLQTALEMLRQKQQEAEKLEADIREEKASWKIQIDYDKTNVSADFEQLREILDWEESNELQNLEKEEEDILKSLTKSETEMVQQTQYMRELISELEHRLQGSMMDLLQGVDGIIKRIENMTLKKPKTFHKNQRRVFRAPDLKGMLDMFRELTDA
chain 2: MPPPQKIPSVRPFKQRKSLAIRQEEVAGIRAKFPNKIPVVVERYPRETFLPPLDKTKFLVPQELTMTQFLSIIRSRMVLRATEAFYLLVNNKSLVSMSATMAEIYRDYKDEDGFVYMTYASQETFG
B2: Trim5α from Rhesus macaque, Bbox coiled-coil regions, residues 88–296 with the mutation [Rhesus macaque] / GABARAPL1 [not stated] (parent)
chain 1: B1 chain 1
chain 2: not shown
B3: Trim5α from Rhesus macaque, Bbox coiled-coil regions, residues 88–296 with the mutation [Rhesus macaque] / GABARAP [not stated] (parent)
chain 1: B1 chain 1
chain 2: MKFVYKEEHPFEKRRSEGEKIRKKYPDRVPVIVEKAPKARIGDLDKKKYLVPSDLTVGQFYFLIRKRIHLRAEDALFFFVNNVIPPTSATMGQLYQEHHEEDFFLYIAYSDESVYGL

Variants of: B1
Assay: SV-AUC c(s) analysis
Details: with LC3C; 20 μm equimolar concentration; read off a plot

screen value [S] | Variant
2.7 | chain 1 PEEGQKVDHCARHGEKLLLFCQEDSKVICWLCKDSQEHRGHHTFLMEEVAQEYHVKLQTALEMLRQKQQEAEKLEADIREEKASWKIQIDYDKTNVSADFEQLREILDAEESNELQNLEKEEEDILKSLTKSETEMVQQTQYMRELISELEHRLQGSMMDLLQGVDGIIKRIENMTLKKPKTFHKNQRRVFRAPDLKGMLDMFRELTDA [chain 1 W109A]

Variants of: B2
Assay: SV-AUC c(s) analysis
Details: with GABARAPL1; equal concentration of 20 μm; read off a plot

screen value [S] | Variant
3 | chain 1 E119A
2.9 | chain 1 E119K
3 | chain 1 E110A
3 | chain 1 Q116A
3 | chain 1 S112A
2.9 | chain 1 E111K
3.1 | chain 1 Q102A
2.9 | chain 1 E105A
2.8 | chain 1 E105K

Same assay, conditions: with autophagy-related protein LC3 B (LC3B), equal concentration of 20 μm, read off a plot

screen value [S] | Variant
2.8 | chain 1 E119A
2.8 | chain 1 E119K
2.8 | chain 1 E110A
3 | chain 1 Q116A
3 | chain 1 S112A
2.8 | chain 1 E111K
2.9 | chain 1 Q102A
2.8 | chain 1 E105A
2.7 | chain 1 E105K

Same assay, conditions: with GABARAPL1; 20 μm equimolar concentration; read off a plot

screen value [S] | Variant
2.8 | chain 1 W109A

Same assay, conditions: with autophagy-related protein LC3 B (LC3B), 20 μm equimolar concentration, read off a plot

screen value [S] | Variant
2.7 | chain 1 W109A

Variants of: B3
Assay: SV-AUC c(s) analysis
Details: with GABARAP; 20 μm equimolar concentration; read off a plot

screen value [S] | Variant
2.8 | chain 1 W109A
